Consider one molecule from patent US20250296984A1, “THERAPEUTIC AND DIAGNOSTIC AGENTS AND USES THEREOF” (priority 2022, published 2025).

Experiment [1] has as its target T1, US28 protein from HCMV strain Merlin on HEK Phoenix Ampho cells (Human cytomegalovirus, UniProt P69332, S330G).
T1 construct: expressed in transfected cells; host or cells: HEK Phoenix Ampho (ATCC-CRL-3213)
The experiment is described as follows: Flow cytometry, HEK Phoenix Ampho cells transfected with US28 (Merlin). In kind it is binding. The conditions noted are these: mock subtracted, fold-difference minus 1, sign = increase or decrease. As to the method: (§1) ii. Materials: • Cells: HEK Phoenix Ampho (ATCC-CRL-3213), p 21. • Staining buffer: PBS with 1% BSA, 2 mM EDTA. • Plasmid: Encoding US28 protein from different HCMV strains: DB; TB40/E; Merlin; and VHL/E. • Blocking: Human TruStain FcX™ (ref 422302). • Live Dead: Invitrogen™ eBioscience™ Fixable Viability Dye eFluor™ 780 (ref 13539140). • Primary antibodies: 7B1F3 (6.76 nM=1 μg/ml); hum7B1F3 (6.76 nM=1 μg/ml).
(§2) The day before transfection, HEK Ampho cells were seeded in a 1×6-well plate with 1×10^6 live cells/well, 2 mL/well. Seeded 4 wells for HEKPhoenix_plasmids. Seeded 2 wells for HEKPhoenix_Mock transfected. Incubated the cells in a 37° C. incubator with >80% relative humidity and 5% CO2.
(§3) After 1 day, cells will have adhered and reached >60% confluency. Removed 700 uL media from each well prior to transfection. Allowed X-tremeGENE™ HP DNA Transfection Reagent, DNA and diluent Opti-MEM® I Reduced Serum Medium to warm to +15° C. to +25° C., and vortexed gently. Placed 100 μL diluent in a sterile tube for each condition. Added 1 μg plasmid DNA. Pipetted gently to mix (DNA was not added for the mock condition): • DB (683.3 ng/μL): 1.46 μL • TB40/E (742.05 ng/μL): 1.35 μL • Merlin (70.78 ng/μL): 14.13 μL • VHL/E (51.87 ng/μL): 19.28 μL
(§4) Added 3 μL X-tremeGENE™ HP DNA Transfection Reagent to the diluted DNA. (3:1 ratio of reagent to DNA). Pipetted gently to mix, then: • 1. […]
(In general: In flow cytometry, cells or beads pass a laser one at a time.)

Experiment [2] addresses T2, US28 protein from HCMV strain DB on HEK Phoenix Ampho cells (Human cytomegalovirus, UniProt P69332, D170N/D19A).
T2 construct: expressed in transfected cells; host or cells: HEK Phoenix Ampho (ATCC-CRL-3213)
Nature of the experiment: Flow cytometry, HEK Phoenix Ampho cells transfected with US28 (DB). In kind it is binding. The conditions noted are these: mock subtracted, fold-difference minus 1, sign = increase or decrease. The procedure:
as §1, §2, §3, §4

Experiment [3] concerns HEKPhoenix_Mock transfected cells. The experiment is described as follows: Flow cytometry, HEKPhoenix Mock transfected cells. In kind it is binding, human. The conditions noted are these: antibody concentration 6.76 nM, Myc tag detection. The procedure: as §1, §2, §3, §4
The target in experiment [4] is T3, US28 protein from HCMV strain TB40/E on HEK Phoenix Ampho cells (Human cytomegalovirus, UniProt P69332, A8T/D15E/E18L/V24T).
T3 construct: expressed in transfected cells; host or cells: HEK Phoenix Ampho (ATCC-CRL-3213)
The experiment is described as follows: Flow cytometry, HEK Phoenix Ampho cells transfected with US28 (TB40/E). In kind it is binding. The conditions noted are these: mock subtracted, fold-difference minus 1, sign = increase or decrease. The procedure:
as §1, §2, §3, §4

B1: 7B1F3-Myc: 7B1F3 labelled with a Myc tag (antibody, V domains shown)
VH: EVQLQQSGAELAKPGASVKMSCKASGYTFTNYWMHWVKQRPGQGLEWIGYVNPRTGYTEYNQKFKDKATLTADKSSRTAYMQLSSLTSEDSAVYSCARILNGTGFAYWGQGTLVTVSA
VL: DIVLTQSPSSLTVSVGEKFTMSCKSSQSLLYSSNQKNYLAWYQQKPGQSPKLLIYWASTRESGVPDRFTGSGSGTDFTLAISSVKPEDLAIYYCQQYYSFPLTFGAGTKLEIK
As to B1, the “Variation in binding, relative to determined binding to US28 as encoded by VHL/E; Merlin” value in experiment [1] is listed as “+0.21”. In addition, the “Variation in binding, relative to determined binding to US28 as encoded by VHL/E; DB” value in experiment [2] is listed as “+0.64”. Also, the “Preliminary Binding Data, Mock” value in experiment [3] stood at 0.06. The “Variation in binding, relative to determined binding to US28 as encoded by VHL/E; TB40/E” value in experiment [4] was “+0.14”.
